This note sets out measurements from US20220096594A1 (University of Texas, published 2022).

Bridge positions count the residues as written; N and C are the ends. Square brackets hold non-standard residues; d marks the D form. Primed or numbered codes have the meaning given here. Ends that are not written are not given here. * marks the point of attachment. DSG″ = disuccinimidyl glutarate, a bis-NHS cross-linker that leaves a glutaryl bridge between two amines; DSG(3) = disuccinimidyl glutarate, bis-NHS cross-linker leaving a glutaryl bridge between two amines; puromycin = COc1ccc(C[C@H](N*)C(=O)N[C@H]2[C@@H](O)[C@H](n3cnc4c(N(C)C)ncnc43)O[C@@H]2CO)cc1; DSG = disuccinimidyl glutarate; NMeA = CN[C@@H](C)C(=O)O; mRNA = not defined here

Assay [1] has as its target T1, His6-LC3A, biotinylated and immobilized on streptavidin agarose (human, UniProt Q9H492 1-121, chemically biotinylated (sites not given)).
T1 construct: the species is not restated for this construct; The tag is placed at the N-terminus only because of the name His6-LC3A; also called immobilized LC3A; immobilized LC3; not shown: His6 tag
Put plainly: radiolabeled peptide fusion incubated with immobilized LC3A.

For assay [2], the target named is LC3 (as used in surface plasmon resonance) (human, UniProt Q9H492 1-120). Put plainly: surface plasmon resonance. For orientation: SPR reads the build-up and loss of mass on a sensor chip optically.

B1: Clone 4E radiolabeled mRNA-peptide fusion (peptide)
peptide: MLSDIPVNDK-{puromycin-mRNA}
modifications: bridge N-10 via DSG(3); reading uncertain; also: radiolabeled
With B1, the “% of radiolabeled peptide-fusions bound to immobilized LC3” value (from here on “% of radiolabeled peptide-fusions bound”) in assay [1] was 7%.

B2: Clone 25C radiolabeled mRNA-peptide fusion (peptide)
peptide: MFSHRVTL[NMeA]K
modifications: bridge N-10; not fully specified (C-terminus, bridges); also: radiolabeled
Regarding B2, the “% of radiolabeled peptide-fusions bound” value in assay [1] stood at 13%.

B3: SUPR 4B1W (peptide)
peptide: MWPHRVTA[NMeA]K
modifications: bridge N-10 via DSG
notes: Phenylalanine-to-tryptophan variant of SUPR 4B at position 2
Broadly, the Kd is the equilibrium constant for the complex coming apart. Higher therefore signals a looser complex. On to B3, for which, in assay [2], the Kd stood at 30 µM and the “fold improvement of the apparent dissociation constant relative to SUPR4B” value was approximately 10 fold.

B4: SUPR 4B (synthesized cyclic peptide) (peptide)
peptide: MFPHRVTA[NMeA]K
modifications: bridge N-10 via DSG″
notes: It is kept apart from the mRNA-peptide fusion m1; also called Clone 4B
Molecule B4 returned a Kd in assay [2] of 291 µM.

B5: Clone 25A radiolabeled mRNA-peptide fusion (peptide)
peptide: MYARSLRD[NMeA]K
modifications: bridge N-10; not fully specified (C-terminus, bridges); also: radiolabeled
In the case of B5, the “% of radiolabeled peptide-fusions bound” value in assay [1] amounted to 6%.

B6: Clone 25F radiolabeled mRNA-peptide fusion (peptide)
peptide: MNARSLRD[NMeA]K
modifications: bridge N-10; not fully specified (C-terminus, bridges); also: radiolabeled
For the molecule B6, in assay [1], the “% of radiolabeled peptide-fusions bound” value worked out at 5%.

B7: Clone 4B radiolabeled mRNA-peptide fusion (peptide)
peptide: MFPHRVTA[NMeA]K
modifications: bridge N-10; not fully specified (C-terminus, bridges); also: radiolabeled
notes: Tested as an individual in vitro translated peptide fusion from the SUPR mRNA display selection; also called Peptide 4B
B7: the “% of radiolabeled peptide-fusions bound” value in assay [1] was 86%.
